One block for each binder: values may come before it.
Legend:
Settings in all cases: both partners purified
[1] = biological target: T1, full-length human Bcl-2 protein (human, UniProt P10415 1-239); test: NMR titration; Bax-BH3 peptide added at 1:1, 1:3, 1:6 and 1:12 molar ratio to 0.3 mM Bcl-2 or 0.25 mM Bcl-2 ΔTM; 1H-15N TROSY-HSQC, chemical shift perturbations; 5 mM DPC micelles, 20 mM NaPi, 20 mM NaCl, 2 mM TCEP, pH 6.0, 310 K
T1 construct: three additional N-terminal residues left by the design of the pET-15b expression vector; Bcl-2 (B-cell lymphoma 2), human, full length, 239 aa; 15N (or 13C,15N) uniformly labelled for NMR; Surmise: GSH is what is left after the pET-15b His tag is cut off with thrombin; also called B-cell lymphoma 2; intact human Bcl-2; source: in DPC micelles

[2] = biological target: T2, Bcl-2 ΔTM (aa 1-207) (human, UniProt P10415 1-207); test: as above
T2 construct: three additional N-terminal residues left by the design of the pET-15b expression vector; Bcl-2, human, residues 1-207; a stop codon ends the protein at position 207; 15N labelled for NMR; Made from the full-length construct by site-directed mutagenesis (stop codon TAA); also called Bcl-2 ∆TM; soluble variant with the C-terminal anchor removed; source: E. coli, pET-15b, purified as the …
T2 sequence (P10415 other isoform, or with tags, fused parts or gaps mutant): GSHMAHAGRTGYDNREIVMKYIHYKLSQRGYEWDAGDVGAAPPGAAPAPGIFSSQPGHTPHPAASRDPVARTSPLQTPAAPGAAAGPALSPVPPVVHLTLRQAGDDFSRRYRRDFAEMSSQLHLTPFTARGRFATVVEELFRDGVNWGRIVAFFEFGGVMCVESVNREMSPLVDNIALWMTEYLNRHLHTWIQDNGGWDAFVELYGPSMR

[3] = biological target: T3, Bim (138-174) BH3 peptide from Homo sapiens (Homo sapiens, N-terminal acetyl (Ac-); C-terminal amide (-NH2)); test: NMR titration; Bim-BH3 peptide added at 1:1, 1:3 and 1:6 molar ratio to 0.4 mM Bcl-2ΔN(1-82); 1H-15N TROSY-HSQC; 5 mM DPC micelles, 20 mM NaPi, 20 mM NaCl, 2 mM TCEP, pH 6.0; clear samples after centrifugation
T3 construct: Bim, Homo sapiens, residues 138-174; The peptide formed a colloidal suspension in buffer; spectra were recorded on clear samples after centrifugation; also called Bim-BH3 peptide; Bim peptide; source: synthetic peptide, bought: GenScript
T3 sequence (peptide, as listed by the source): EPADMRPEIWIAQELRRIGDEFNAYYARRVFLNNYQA

[4] = biological target: T1, full-length human Bcl-2 protein; test: NMR titration; Nur77 peptide added at 1:6, 1:12 and 1:24 molar ratio to 0.3 mM Bcl-2; 1H-15N TROSY-HSQC, chemical shift perturbations; 5 mM DPC micelles, 20 mM NaPi, 20 mM NaCl, 2 mM TCEP, pH 6.0

- binding result [1]: binds
- binding result [2]: binds
B1: 36-mer Bax-BH3 peptide from Mus musculus (peptide)
peptide: Ac-QPPQDASTKKLSECLRRIGDELDSNMELQRMIADVD-NH2
notes: Bax, Mus musculus, BH3 region, 36 residues; also called Bax-derived BH3 peptide; source: synthetic peptide, bought: GenScript

- binding result [3]: binds
B2: Bcl-2 ΔN(1-82) (domain or fragment, human)
chain: GSHMGPALSPVPPVVHLTLRQAGDDFSRRYRRDFAEMSSQLHLTPFTARGRFATVVEELFRDGVNWGRIVAFFEFGGVMCVESVNREMSPLVDNIALWMTEYLNRHLHTWIQDNGGWDAFVELYGPSMRPLFDFSWLSLKTLLSLALVGACITLGAYLGHK
notes: three additional N-terminal residues left by the design of the pET-15b expression vector; added start methionine: the construct starts its N-terminus with residues MGP (M before G83, P84); Bcl-2, human, the first 82 N-terminal amino acids deleted, C-terminal residues kept (full length is 239 aa); Gene bought from GenScript and sub-cloned into pET-15b; source: E. coli, pET-15b, purified as the …

- binding result [4]: binds
B3: Nur77 peptide (peptide)
peptide: Ac-FSRSLHSLL-NH2
notes: Nur77 (NR4A1), 9-residue peptide; source: synthetic peptide, bought: GenScript

From publication PMC8079415, “Neutron reflectometry and NMR spectroscopy of full-length Bcl-2 protein reveal its membrane localization and conformation” (Communications Biology, 2021)
